Data from CN115368464A (HEFEI TIANGANG IMMUNOLOGY PHARMACEUTICAL CO LTD, dated 2022).

Target: T1, CD33蛋白 (SEQ ID NO:27) on CHO-K1-CD33 / A375-CD33 cells (Homo sapiens (Human), UniProt P20138 18-364)
T1 construct: also called CHO-K1-CD33细胞; A375-CD33细胞
Assay: flow cytometry on CHO-K1-CD33 cells, Alexa-647 anti-human Fc

T1 sequence (P20138 18-364 limits assumed): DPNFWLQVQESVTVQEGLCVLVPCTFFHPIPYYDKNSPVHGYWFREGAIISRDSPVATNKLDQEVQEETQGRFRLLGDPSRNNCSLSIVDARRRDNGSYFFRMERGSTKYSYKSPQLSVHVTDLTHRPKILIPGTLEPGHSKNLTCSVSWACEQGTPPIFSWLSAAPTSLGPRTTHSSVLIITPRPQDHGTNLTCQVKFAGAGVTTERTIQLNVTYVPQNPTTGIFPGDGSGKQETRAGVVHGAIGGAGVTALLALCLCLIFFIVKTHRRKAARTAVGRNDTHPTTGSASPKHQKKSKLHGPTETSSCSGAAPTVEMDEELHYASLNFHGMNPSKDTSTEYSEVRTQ

B1: CD3×CD33双特异性抗体 (bispecific antibody, human IgG1, kappa, L234A L235A)
chain: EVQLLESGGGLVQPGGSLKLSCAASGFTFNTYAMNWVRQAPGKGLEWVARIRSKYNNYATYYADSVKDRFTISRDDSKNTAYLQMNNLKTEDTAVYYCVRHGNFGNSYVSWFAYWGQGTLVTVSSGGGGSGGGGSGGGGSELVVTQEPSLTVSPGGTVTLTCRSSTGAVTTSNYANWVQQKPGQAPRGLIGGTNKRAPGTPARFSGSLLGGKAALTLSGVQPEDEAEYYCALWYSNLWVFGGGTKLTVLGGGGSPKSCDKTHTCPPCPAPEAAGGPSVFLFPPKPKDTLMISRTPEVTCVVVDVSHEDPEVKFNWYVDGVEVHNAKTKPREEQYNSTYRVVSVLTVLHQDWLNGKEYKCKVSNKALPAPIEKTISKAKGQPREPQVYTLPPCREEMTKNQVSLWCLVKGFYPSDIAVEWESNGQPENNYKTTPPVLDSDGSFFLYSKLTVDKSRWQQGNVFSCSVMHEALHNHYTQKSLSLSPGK
heavy: EVQLVQSGAEVKKPGSSVKVSCKASGYTITDSNIHWVRQAPGQSLEWIGYIYPYNGGTDYNQKFKNRATLTVDNPTNTAYMELSSLRSEDTAFYYCVNGNPWLAYWGQGTLVTVSSASTKGPSVFPLAPSSKSTSGGTAALGCLVKDYFPEPVTVSWNSGALTSGVHTFPAVLQSSGLYSLSSVVTVPSSSLGTQTYICNVNHKPSNTKVDKKVEPKSCDKTHTCPPCPAPEAAGGPSVFLFPPKPKDTLMISRTPEVTCVVVDVSHEDPEVKFNWYVDGVEVHNAKTKPREEQYNSTYRVVSVLTVLHQDWLNGKEYKCKVSNKALPAPIEKTISKAKGQPREPQVCTLPPSREEMTKNQVSLSCAVKGFYPSDIAVEWESNGQPENNYKTTPPVLDSDGSFFLVSKLTVDKSRWQQGNVFSCSVMHEALHNHYTQKSLSLSPGK
light: DIQLTQSPSTLSASVGDRVTITCRASESLDNYGIRFLTWFQQKPGKAPKLLMYAASNQGSGVPSRFSGSGSGTEFTLTISSLQPDDFATYYCQQTKEVPWSFGQGTKVEVKRTVAAPSVFIFPPSDEQLKSGTASVVCLLNNFYPREAKVQWKVDNALQSGNSQESVTEQDSKDSTYSLSSTLTLSKADYEKHKVYACEVTHQGLSSPVTKSFNRGEC
notes: Fc is human IgG1 with L234A/L235A; also called 抗体CD3×CD33; CD3×CD33双特异抗体
Does B1 bind?
Result: binds
